# Test: yeast display, Sf9 membrane polyspecificity reagent, FACS + sequencing; frameworks hold sequencing errors
# Procedure, shortened: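 Sorting gates, low and high (top ~1%), were placed on anti-HA fluorescence to track expression and on streptavidin fluorescence to track reagent binding. A clone's polyreactivity label is taken from the gate it came out of. The reagent was 10% biotinylated, detergent-solubilized Sf9 membrane, applied for 1 hour at 4 °C to galactose-induced yeast display cells.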
row,Sequence,polyreactivity (PSR sort gate)
1,QVQLVESGGGLVQAGGSLRLSCAASGFTFTYYAMGWYRQAPGKERELVAVITRSGNTYYADSVKGRFTISRDNAKNTVYLQMNSLKPEDTAVYYCATVGQRLHLGYWGQGTQVTVSS,high polyreactivity
2,QVQLVESGGGLVQAGGSLRLSCAASGFTFVGNAMGWYRQAPGLERELVAAITRGGSSYYADSVKGRFTISRDNAKKTVYLQMNSLKPEDTAVYYCNAELPVHWSWYDYWGQGTQVTVSS,low polyreactivity
3,QVQLVESGGGLVQAGGSLRLSCAASGFTFVGYAMGWYRQAPGKERELVAAISSSGVSTYYADSVKGRFTISRDNAKNTVYLQMNSLKPEDTAVYYCNRVSVYRSSHLLWGGYWGQGTQVTVSS,low polyreactivity
4,QVQLVESGGGLVQAGGSLRLSCAASGFTFVINDMGWYRQAPGKERELVADITSGGDKYYADSVKGRFTISRDNAKNTVYLQMISLKPEDTAVYYCARDNERDYYTYPYDYWGQGTQVTVSS,low polyreactivity
5,QVQLVESGGGLVQAGGSLRLSCAASGFTFVIYAMGWYRQAPGTERELVATITGSGGSTYYADSVKWRITISRDNAKNTVYLQMNSLKPEDTAVYYCAARRRYQRYSRYDYWGLGTQVTVSS,high polyreactivity
6,QVQLVESGGGLVQAGGSLRLSCAASGFTFVKYAMGWYRQAPGKERELVAVISRRGGSTYYADSVKGRFTISRDNAKNTVYLQMNSLKPEDTAVYYCAAKVALPRTQEWEYGYWGQGTQVTVSS,high polyreactivity
7,QVQLVESGGGLVQAGGSLRLSCAASGFTFVKYAMGWYRQAPGKVRELVASISSGGSTYYADSVKGRFTISRDNAKNTVYLQMNSLKPEDTAVYYCNKSPGYGRYSRRYDSWGQGTQVTVSS,high polyreactivity
8,QVQLVESGGGLVQAGGSLRLSCAASGFTFVPYAMGWYRQAPGKEREFVADITSSGTTNYADSVKGRFTISRDNAKNTVYLQMNSLKPEDTAVYYCAADPDSGQVPFDYWGQGTQVTVSS,low polyreactivity
9,QVQLVESGGGLVQAGGSLRLSCAASGFTFVQYAMGWYRPAPGKERELVARISSSGGSTYYADSVKGRFTISRDNAKNTVYLQMTSLKPEDTAVYYCAARRSHYYYVARFDYWGQGTQVTVSS,high polyreactivity
10,QVQLVESGGGLVQAGGSLRLSCAASGFTFVQYAMGWYRPAPGKERELVATISKSGGITYYADSVKGRFTISRDTAKNTVYLHMNSVKPEDTAVYYCAAAWYYSSRGFHATWGHDYWGQGTQVTVSS,low polyreactivity
11,QVQLVESGGGLVQAGGSLRLSCAASGFTFVRNAMGWYRQAPGKERELVAAISDRGGTYYADSVKGRFTISRDNAKNTVYLQMNSLKPEDTAVYYCAAKYWYPYQYSHGSFYYWGQVTQVTVSS,high polyreactivity
12,QVQLVESGGGLVQAGGSLRLSCAASGFTFVRYAMGWDSQAPGTERELVAAMSRSGGSTYYADSVKGRFTISRDNAKNTVYLQMNSLKPEDTAVYYCAADIKGRTGDAYDYWGQGTQVTVSS,low polyreactivity
13,QVQLVESGGGLVQAGGSLRLSCAASGFTFVRYAMGWYRQAPGKERELVAAITRSGGSTYYADSVKGRFTISRDNAKNTVYLQMNSLKPEDTAVYYCNARRSRSRYDYWGQGTQVTVSS,high polyreactivity
14,QVQLVESGGGLVQAGGSLRLSCAASGFTFVRYAMRWYRQAPGTERELVAAISYSGGRTYYADSVKGRFTISRDTAKNTVYLQMNSLKPEDTAVYYCAADAFRGFYWGQGTQVTVSS,high polyreactivity
15,QVQLVESGGGLVQAGGSLRLSCAASGFTFVSNAMGWYRQAPGKERELVADITSDGSTNYADSVKGRFTISRDNAKNTVYLQMNSLKPEDTAVYYCATDQRSHTWVNQFDYWGQGTQVTVSS,low polyreactivity
16,QVQLVESGGGLVQAGGSLRLSCAASGFTFVSYAMGWYRQAPGKERELVAAISSRVGSTYYADSVKGRFTISRDNAKNTVYLQMNSLKPEDTAVYYCAASFTDRVTLDYFRSYAFEYWGQGTQVTVSS,low polyreactivity
17,QVQLVESGGGLVQAGGSLRLSCAASGFTFVSYAMGWYRQATGKERELVAVIDNSDGDTYYADSVKGRFTISRDNAKNTVYLQMNSLKPEDTAVYYCAADAVIEWTDWYSAWWYYYWGQGTQVTVSS,low polyreactivity
18,QVQLVESGGGLVQAGGSLRLSCAASGFTFVTYAMGWYRQAPGKERELVAAISSSGRTYYADSVKGRFTISRDNAKNTVYLQMNSLKPEDTAVYYCAVQGAWRSFYYWGQGTQVTVSS,high polyreactivity
19,QVQLVESGGGLVQAGGSLRLSCAASGFTFVWYAMGWYRPAPGKERELVAAISRRGTRTYYADSVKGRFTISRDNAKNTVYLQMNSLKPEDTAVYYCAASNGYQAVTYDYWGQGTQVTVSS,high polyreactivity
20,QVQLVESGGGLVQAGGSLRLSCAASGFTFVWYVMGWYRQAPGKEREFVAAITSTGGNTNYADSVKGRFTISRDNAKNTVYLEMNSLKPEDTAVYYCAKRYGFPPGYYYWGQGTQVTVSS,low polyreactivity
21,QVQLVESGGGLVQAGGSLRLSCAASGFTFVYNALGWYRQAPGKERELVAAISGSGGSTYYADSVKGRFTISRDNAKNTVYLQMNSLKPEDTSVYYCNAVPSWRWEYDHWGQGTQVTVSS,high polyreactivity
22,QVQLVESGGGLVQAGGSLRLSCAASGFTFVYNAMGWYRQAPGKERELVAAINSGGRTNYADSVKGRFTISRDNAKNTVYLQMNSLKPEDTAVYYCAAEVTSFSFGGDATEYYWGQGTQVTVSS,low polyreactivity

row,Sequence,polyreactivity (PSR sort gate)
1,QVQLVESGGGLVQAGGSLRLSCAASGFTFVYNAMGWYRQAPGKERELVAAISKSGDRTYYADSVKGRFTISRDYAKNTVYLQMNSLKPEDTAVYYCNAKVVHGYQRFNYWGQGTEVTVSS,high polyreactivity
2,QVQLVESGGGLVQAGGSLRLSCAASGFTFVYYAMGWYRPAPGKERELVAAISRGGSTYYADSVKGRFTISRDNAKNTVYLQMNSLKPEDTAVYYCNAKKSGLYVSYPAYDYWGQGTQVTVSS,low polyreactivity
3,QVQLVESGGGLVQAGGSLRLSCAASGFTFVYYAMGWYRQAPGKERELVAGISSSAGSTYYADSVKGRFTISRDNAKNTVYLQMNSLKPEDTAVYYCNAEYYWWPFDYWGQGTQVTVSS,high polyreactivity
4,QVQLVESGGGLVQAGGSLRLSCAASGFTFVYYAMGWYRQAPGKEREMVAGISSSDTTSYADSVKGRFTISRDNAKNTVYLQMNSLKPEDTEVYYCATRYWRRYPSTWSYPYYYWGQGTQVTVSS,high polyreactivity
5,QVQLVESGGGLVQAGGSLRLSCAASGFTFVYYAMGWYRQAPGTERELVAAISQSGSSTYYADSVKGRFTISRDNAKNTVYLQMNTLKPEDTAVYYCAAQEFQKRLGGSWWRYDYWGQGTQVTVSS,high polyreactivity
6,QVQLVESGGGLVQAGGSLRLSCAASGFTFVYYVMGWYRQAPGKERELVAAINAGGGSTYYADSVKGRFTISRDNAKNTVYLQMNSLKPEDTAVYYCYARVRVRLGRNWSSYYYWGQGTQVNVSS,high polyreactivity
7,QVQLVESGGGLVQAGGSLRLSCAASGFTFWEYAMGWYRQAPGKERELVAAISRGTSTYYADSVKGRFTISRDNAKNTVYLQMNSLKPEDTAVYYCAAAPSYYPARHGYWGQGTQVTVSS,low polyreactivity
8,QVQLVESGGGLVQAGGSLRLSCAASGFTFWLYAMGWYRQAPGKERELVAAISRNSVSTYYADSVKGRFTISRDNAKNTVYLQMNSLKPEDTAVYYCAVDQYATDDYWGQGTQVTVSS,high polyreactivity
9,QVQLVESGGGLVQAGGSLRLSCAASGFTFWRNAMGWYRQAPGKERELVAAISSGTGRTYYADSVKGRFTISRDNAKNTVYLQMNSLKPEDTAVYYCAKVNGRTSYGTSTRDYWGQGTQVTVSS,low polyreactivity
10,QVQLVESGGGLVQAGGSLRLSCAASGFTFWRNTMGWYRQAPGKEREFVAGISGSGGSTYYADSVKGRFTISRDNAKNTVYLQMNSLKPEDTAVYYCAAVYRFSRTFYTPGYDYWGQGTQVTVSS,high polyreactivity
11,QVQLVESGGGLVQAGGSLRLSCAASGFTFWRYAMGWYRQAPGKERELVAVITRRGGSTYYADSVKGRFTISRDNAKNTVYLQMNSLKPEDTAVYYCAAGPVSQQHSPGPHDYWGQGTQVTVSS,high polyreactivity
12,QVQLVESGGGLVQAGGSLRLSCAASGFTFWSYAMGWYRQAPGKERELVAGITIDGNTYYADSVKGRFTISRDNAKNTVYLQMNSLKPEDTAVYYCATPVYRSTYEYDYWGQGTQVTVSS,low polyreactivity
13,QVQLVESGGGLVQAGGSLRLSCAASGFTFWSYGMGWYRQAPGKERELVAAISWSGGRTYYADSVKGRFTISRDNAKNTVYLQMNSLKPDDTAVYYCAAQPYYYFDEYTQYDYWGQGTQVTVSS,high polyreactivity
14,QVQLVESGGGLVQAGGSLRLSCAASGFTFWTYAMGWYRQAPGKERELVAAISRSAGRTYYADSVKGRFTISRDNAKNTVYLQMNSLKPEDTAVYYCNARAGYVRYGYWGQGTQVTVSS,high polyreactivity
15,QVQLVESGGGLVQAGGSLRLSCAASGFTFWWYAMGWYRQAPGKERELVASIDTRGGTYYADSVKGRFTISRDNAKNTVYLQMNSLKPEDSAVYYCNADGAYGNYRGGYWGQGTEVTVSS,high polyreactivity
16,QVQLVESGGGLVQAGGSLRLSCAASGFTFWWYAMGWYRQAPGKERQLVAGITSGASTYYADSVKGRYTISRDNAKNTVYLQMNSLKPEDTAVYYCAADWLGWYQPYDYWGQGTQVTVSS,low polyreactivity
17,QVQLVESGGGLVQAGGSLRLSCAASGFTFWYYAMGWYRQAPGKERELVAAISSNGASTYYADSVKGRFTISRDNAKNTVYLQMNSLKPEDTAVYYCNAYYDTWDSAYDYDYWGQGTQVTVSS,low polyreactivity
18,QVQLVESGGGLVQAGGSLRLSCAASGFTFWYYAMGWYRQAPGKERELVAAITEDGDSTYYADSVKGRFTISRDNAKNTVYLQMNSLKPEDTAVYYCNTDLTFNGTSGDYDYWGQGSQVTVSS,low polyreactivity
19,QVQLVESGGGLVQAGGSLRLSCAASGFTFWYYVMGWYRQAPGKERELVAAITSSGDSTYYADSVKGRFTISRDNAKNTVYLQMNSLKPEDTAVYYCAAQRYPFERDYWGQCTQVTVSS,high polyreactivity
20,QVQLVESGGGLVQAGGSLRLSCAASGFTFYANAKGWYRQAPGKERELVAAIDQSGTSTNYADSVKGRFTISRDNAKNTVYLQMNSLKPDDTAVYYCAADSSFYYYPLILFWGDYWGQGTQVTVSS,low polyreactivity
21,QVQLVESGGGLVQAGGSLRLSCAASGFTFYAYAMGWYRPAPGKERELVAGISWSGGSTYYADSVKGRFTISRDNAKNTVYLQMNSLKPEDTAVYYCAAYSIAELWEYYYWGQGTQVTVSS,low polyreactivity
